Results on one substance are retold here after US20170022269A1.

Experiment [1] concerns the target Aβ(20-42) globulomer (human). In words: dot blot densitometry, antibody 0.2 µg/ml; column Aβ(20-42) globulomer (reference).
Another experiment concerns the target Aβ(1-42) fibrils (human) (UniProt P05067). In words: co-pelleting with Aβ(1-42) fibrils, SDS-PAGE, optical density of the heavy chain in pellet / (pellet + supernatant).

Aβ(20-42) globulomer (human), sequence (peptide, as listed by the source): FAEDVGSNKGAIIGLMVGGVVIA
Aβ(1-42) fibrils (human), sequence (P05067 672-713): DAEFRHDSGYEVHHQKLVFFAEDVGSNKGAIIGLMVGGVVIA

In turn, “commercially available antibody 6E10 (Signet, Cat. no. 9320)” yielded a relation between recognition of Aβ(20-42) globulomer and the respective Aβ form in experiment [1] of 1. Moreover, the antibody bound to fibrils [%] with Aβ(1-42) fibrils (human) was 98%.
